Laboratory results reported in IntAct's records for PubMed 20133654.

Tests used:
obsl1_human OBSL1 = obsl1_human OBSL1 (UniProt O75147)
obscn_human OBSCN = obscn_human OBSCN (UniProt Q5VST9)

Chain of obsl1_human OBSL1 (O75147 whole entry): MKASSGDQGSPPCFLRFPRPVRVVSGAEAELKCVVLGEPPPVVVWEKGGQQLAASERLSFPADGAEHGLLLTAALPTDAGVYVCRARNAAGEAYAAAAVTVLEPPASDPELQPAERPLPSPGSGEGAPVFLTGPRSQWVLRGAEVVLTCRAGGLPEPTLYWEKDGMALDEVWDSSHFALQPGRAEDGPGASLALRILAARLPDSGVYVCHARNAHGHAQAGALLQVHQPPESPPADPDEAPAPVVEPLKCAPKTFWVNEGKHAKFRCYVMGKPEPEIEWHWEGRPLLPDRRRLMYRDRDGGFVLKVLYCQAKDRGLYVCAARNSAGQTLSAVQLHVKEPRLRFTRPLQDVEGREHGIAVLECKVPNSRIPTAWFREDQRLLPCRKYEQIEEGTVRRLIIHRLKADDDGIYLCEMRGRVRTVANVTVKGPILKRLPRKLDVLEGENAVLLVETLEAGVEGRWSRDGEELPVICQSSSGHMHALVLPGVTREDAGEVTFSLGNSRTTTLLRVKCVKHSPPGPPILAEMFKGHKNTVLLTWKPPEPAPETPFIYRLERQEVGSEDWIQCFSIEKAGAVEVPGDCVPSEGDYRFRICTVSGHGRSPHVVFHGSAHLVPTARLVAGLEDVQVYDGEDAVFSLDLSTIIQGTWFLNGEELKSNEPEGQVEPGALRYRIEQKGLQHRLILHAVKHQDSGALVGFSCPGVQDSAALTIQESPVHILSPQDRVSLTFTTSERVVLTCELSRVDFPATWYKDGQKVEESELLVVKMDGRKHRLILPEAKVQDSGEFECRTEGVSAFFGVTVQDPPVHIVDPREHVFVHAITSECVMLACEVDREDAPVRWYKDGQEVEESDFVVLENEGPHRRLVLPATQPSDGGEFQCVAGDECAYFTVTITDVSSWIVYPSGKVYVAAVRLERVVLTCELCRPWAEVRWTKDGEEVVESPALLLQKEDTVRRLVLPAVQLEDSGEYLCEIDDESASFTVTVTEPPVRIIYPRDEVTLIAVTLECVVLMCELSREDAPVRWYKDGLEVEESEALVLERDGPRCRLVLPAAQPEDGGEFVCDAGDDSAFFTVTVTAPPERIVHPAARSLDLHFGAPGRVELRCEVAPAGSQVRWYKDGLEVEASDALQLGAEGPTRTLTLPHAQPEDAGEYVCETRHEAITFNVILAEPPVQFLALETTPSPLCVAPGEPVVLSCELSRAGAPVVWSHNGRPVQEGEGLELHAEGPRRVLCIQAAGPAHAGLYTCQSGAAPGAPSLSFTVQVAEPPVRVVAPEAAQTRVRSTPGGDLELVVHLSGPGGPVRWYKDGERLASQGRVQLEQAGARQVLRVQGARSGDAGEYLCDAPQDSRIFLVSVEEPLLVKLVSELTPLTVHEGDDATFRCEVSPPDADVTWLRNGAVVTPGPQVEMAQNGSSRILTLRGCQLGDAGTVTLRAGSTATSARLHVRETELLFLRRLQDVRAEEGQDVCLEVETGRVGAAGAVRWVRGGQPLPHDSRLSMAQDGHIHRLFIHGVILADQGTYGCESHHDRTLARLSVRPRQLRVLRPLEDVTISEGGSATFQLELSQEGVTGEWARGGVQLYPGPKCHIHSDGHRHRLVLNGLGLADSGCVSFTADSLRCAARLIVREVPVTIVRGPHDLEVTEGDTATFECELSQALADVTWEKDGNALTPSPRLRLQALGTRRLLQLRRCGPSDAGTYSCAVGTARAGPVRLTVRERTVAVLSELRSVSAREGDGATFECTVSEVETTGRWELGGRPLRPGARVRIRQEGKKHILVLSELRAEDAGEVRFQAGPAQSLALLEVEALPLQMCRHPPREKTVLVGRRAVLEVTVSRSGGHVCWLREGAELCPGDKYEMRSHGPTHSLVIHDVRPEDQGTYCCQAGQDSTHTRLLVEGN

## Titin (Homo sapiens), Q8WZ42 A34260Y
obsl1_human OBSL1
  effect of a mutation on the interaction: disrupting interaction
obscn_human OBSCN
  effect of a mutation on the interaction: disrupting interaction

## Titin (Homo sapiens), Q8WZ42 I34306N
obscn_human OBSCN
  effect of a mutation on the interaction: increasing interaction
